Test results published in patent publication US20080254508.

T1: holo-ZmaD
T1 chain: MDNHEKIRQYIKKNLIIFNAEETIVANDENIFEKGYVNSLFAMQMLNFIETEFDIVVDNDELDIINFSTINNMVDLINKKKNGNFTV


Key:
holo-ZmaD [1] = system: holo-ZmaD
holo-ZmaH [2] = system: holo-ZmaH
holo-ZmaH [3] = target: holo-ZmaH; remark: listed apart in the source
holo-ZmaD [4] = target: T1, holo-ZmaD

Row | Molecule | aminoacylation of holo-ZmaD (holo-ZmaD replaced holo-ZmaH) (holo-ZmaD [1]) | formation of seryl-ZmaH (HPLC elution shift and MS mass of holo-ZmaH) (holo-ZmaH [2]) | formation of glyceryl-ACP (control reaction in which holo-ZmaH replaced holo-ZmaD) (holo-ZmaH [3]) | formation of glyceryl-ZmaD (HPLC elution shift and MALDI-TOF MS mass shift of holo-ZmaD) (holo-ZmaD [4]) | rate of holo-ZmaD modification, with 3-PGPK (holo-ZmaD [4]) | rate of holo-ZmaD modification, without 3-PGPK (holo-ZmaD [4])
1 | ZmaJ | ZmaJ was not able to aminoacylate holo-ZmaD | Incubation of holo-ZmaH with ZmaJ, L-Ser, and ATP resulted in a change in the holo-ZmaH elution time from the HPLC, and the mass of the purified product was consistent with the formation of seryl-ZmaH | – | – | – | –
2 | ZmaN (protein) MSKEIKCVVWDLDCTIWDGVLLESGTVTLKPGIYEIICELDRRGILQSVASKNNYEDAIAKLREFGIEEYFLYPEIHWNSKSSSIEKIRKNLNIGIDTFAFIDDQPFELEEVQSVHNDILCIHVNEYKSLLDLPRLQPKRITEDSGRRRLMYLENLKRTKDEEEYEGPKEEFLASLGMNFVISEAREEDLQRAEELTVRTNQLNSTGITYDYDELNYYRNHPDYLLLVCELSDKYGSYGKIGLTLVKRTEEADCLKLLLMSCRVMSRGVGTILLTYLMERTKQAGKRFLAEFRQTDRNRMMFVTYRLAGFKETSNENGILILEHNLENINPYPHYINIQFPETPTDVDRGEVEICNKQL | – | – | holo-ZmaH was not a substrate for ZmaN-catalyzed formation of glyceryl-ACP | The mass of holo-ZmaD had shifted to be consistent with the formation of glyceryl-ZmaD | 1.44 nmol min-1 with 3-PGPK | 0.08 nmol min-1 without 3-PGPK
